The target in this data set is MMP9 full length (UniProt P14780 20-707). As to the kind of experiment: fluorescence polarization. Background: In fluorescence polarisation assays a small probe gives low polarisation when free and higher when bound to something large.
Sequence of MMP9 full length (P14780 20-707): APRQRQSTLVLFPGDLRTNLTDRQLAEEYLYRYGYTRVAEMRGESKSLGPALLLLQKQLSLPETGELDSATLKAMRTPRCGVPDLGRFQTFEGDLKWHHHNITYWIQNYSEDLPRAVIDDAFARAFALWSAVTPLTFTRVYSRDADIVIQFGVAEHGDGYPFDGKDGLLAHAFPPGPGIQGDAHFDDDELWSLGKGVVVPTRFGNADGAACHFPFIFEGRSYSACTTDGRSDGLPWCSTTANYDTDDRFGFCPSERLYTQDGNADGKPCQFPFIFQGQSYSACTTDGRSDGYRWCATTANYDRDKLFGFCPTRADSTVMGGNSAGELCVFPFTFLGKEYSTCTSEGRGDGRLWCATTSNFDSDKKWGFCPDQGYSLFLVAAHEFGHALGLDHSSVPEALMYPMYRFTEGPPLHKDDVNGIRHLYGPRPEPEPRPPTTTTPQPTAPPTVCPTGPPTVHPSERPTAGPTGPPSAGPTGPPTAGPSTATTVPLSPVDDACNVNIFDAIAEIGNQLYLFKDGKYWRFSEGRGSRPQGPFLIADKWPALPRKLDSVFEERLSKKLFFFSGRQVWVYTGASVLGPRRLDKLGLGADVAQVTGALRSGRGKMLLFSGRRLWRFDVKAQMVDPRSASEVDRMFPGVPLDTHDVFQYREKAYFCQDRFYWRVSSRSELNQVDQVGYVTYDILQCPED

As to ACGCCAATAACGCTATTCGAGCTCGAGACGGCGCGATCTC (ssDNA) [Scrambled 40-mer], the binding result is reported as “binds”.
